Experimental data published in PMC2814086 (Molecular Microbiology, 2009).

Target: the molecule itself
Test: mass spectrometry

B1: MinE-His (wild-type MinE with a His tag, plasmid pSOT13 [PT7::minE-his]) (natural protein, E. coli, UniProt P0A734 1-88, looked up)
chain: MALLDFFLSRKKNTANIAKERLQIIVAERRRSDAEPHYLPQLRKDILEVICKYVQIDPEMVTVQLEQKDGDISILELNVTLPEAEELK
- stoichiometry N: 2
